Positions of bridges follow the written chain, without caps; N, C: chain ends. No end group written: not given here.
Assays:
[1] = molecular target: T1, human receptor protein SLT (hSLT) (human, UniProt Q969V1 1-340); test: cell-based or functional assay
[2] = molecular target: T1, human receptor protein SLT (hSLT); test: radioligand competition; [125I]-labeled MCH(4-19) on membrane fraction (30 ug/ml) of human SLT-expressing CHO cells, filtration
Method: Receptor binding assay was performed using [¹²⁵I]-labeled MCH (4-19) prepared in REFERENCE EXAMPLE 3 using Bolton-Hunter reagent and the cell membrane fraction prepared from human SLT-expressing CHO cells.
The cell membrane fraction prepared from human SLT-expressing CHO cells according to EXAMPLE 6 was diluted at various concentrations with the assay buffer (50 mM Tris-HCl, 5 mM EGTA (ethyleneglycol-bis(aminoethylether) tetraacetic acid), 5 mM magnesium acetate, 0.05% CHAPS, 0.1% BSA (bovine serum albumin), 0.25 mM PMSF (phenylmethylsulfonyl fluoride), 1 μg/ml pepstatin, 20 μg/ml leupeptin, pH 7.4). A 200 μl aliquot of each dilution was then dispensed in a polypropylene testing tube (Falcon, Inc., 2053). Two μl of DMSO and 2 μl of 20 nM [¹²⁵I]-labeled MCH (4-19) were added to the membrane fraction solution to determine the amount of total binding (TB), and 2 μl of a solution of 100 μM MCH in DMSO and 2 μl of […] [¹²⁵I]-labeled MCH (4-19) were added thereto to determine the amount of non-specific binding (NSB). After reaction at 25° C. for 60 minutes, the reaction solution was filtered with suction through a polyethyleneimine-treated glass filter (Whatman Co., GF-F). Following the filtration, the radioactivity of [¹²⁵I]-labeled MCH (4-19) remaining on the filter paper was measured with a γ-counter.
As a result, the IC₅₀ value was approximately 20 nM (FIG. 4). […]

T1 sequence (Q969V1 whole entry): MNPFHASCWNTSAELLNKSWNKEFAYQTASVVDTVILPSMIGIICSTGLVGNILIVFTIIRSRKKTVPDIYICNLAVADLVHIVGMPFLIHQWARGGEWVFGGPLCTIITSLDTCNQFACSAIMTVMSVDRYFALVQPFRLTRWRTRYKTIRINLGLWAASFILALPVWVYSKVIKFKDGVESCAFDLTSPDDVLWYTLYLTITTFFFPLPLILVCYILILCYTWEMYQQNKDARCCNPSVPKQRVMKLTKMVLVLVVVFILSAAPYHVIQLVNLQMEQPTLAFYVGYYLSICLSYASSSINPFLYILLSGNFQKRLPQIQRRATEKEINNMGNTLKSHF

Binder: DFDMLRCMLGRVYRPCWQV (disulfide 7-16) [melanin-concentrating hormone, MCH (synthetic human MCH)]
- release of [3H] arachidonic acid metabolite in human SLT-expressing CHO cells, EC50 [1]: 0.57 nM
- IC50 [2]: ~20 nM

B1: Des-[Asp1, Phe2, Asp3]-MCH (MCH(4-19)) (peptide)
peptide: MLRCMLGRVYRPCWQV-OH
modifications: disulfide 4-13; N-terminus assumed
SMILES: CSCC[C@@H]1NC(=O)[C@@H](NC(=O)[C@H](CCCNC(=N)N)NC(=O)[C@H](CC(C)C)NC(=O)[C@@H](N)CCSC)CSSC[C@@H](C(=O)N[C@@H](Cc2c[nH]c3ccccc23)C(=O)N[C@@H](CCC(N)=O)C(=O)N[C@H](C(=O)O)C(C)C)NC(=O)[C@@H]2CCCN2C(=O)[C@H](CCCNC(=N)N)NC(=O)[C@H](Cc2ccc(O)cc2)NC(=O)[C@H](C(C)C)NC(=O)[C@H](CCCNC(=N)N)NC(=O)CNC(=O)[C@H](CC(C)C)NC1=O
notes: also called amino terminal-truncated form of MCH; N-terminal truncated form
- IC50 [2]: 3.3 nM
